In paper PMC1665450, “Molecular modeling and characterization of Vibrio cholerae transcription regulator HlyU” (BMC Structural Biology, 2006):

Molecular target: the molecule itself
Test: not stated; unpublished results (Saha & Chakrabarti); HlyU after cleavage of the N-terminal His6-tag

B1: Vibrio cholerae transcription regulator HlyU (natural protein)
chain: MPYLKGAPMNLQEMEKNSAKAVVLLKAMANERRLQILCMLLDNELSVGELSSRLELSQSALSQHLAWLRRDGLVNTRKEAQTVFYTLSSTEVKAMIELLHRLYCQANQ
notes: also called Vc-HlyU; not shown: His6, N-terminal, cleaved
stoichiometry N: 2
